{
  "source": "patent US20030143740",
  "about": "“Processes for transposase mediated integration into mammalian cells” (published 2003)",
  "target": "hyperactive Tn5 transposase (EK54, MA56, LP372) expressed from pMIR86 (UniProt Q46731 Q46731:1-476, E54K,M56A,L372P)",
  "assay": "cell_activity; NIH3T3 co-transfection",
  "conditions": "tags: pCI mammalian expression vector; chain copies: 2; PshA I blunt-ended linear transposon, ME inverted repeats at both ends",
  "description": "C. Tn5 transposase expressed in eukaryotic cells increases the number of integration events. Plasmid pMIR86 encoding transposase was co-transfected into NIH3T3 cells with transposon plasmid pMIR136 (pSEAP-Tn). The pMIR136 was either linearized with PshA I to form the transposon (SEAP-Tn), or cut with Eco R V/Sse8387 I to remove Tn5 elements from the transposon (SEAP), or left supercoiled (pSEAP-Tn). Control reactions included the same transposon DNA samples but with pCI-Luc (Promega) instead of pMIR86. […] No increase in colonies was observed when linear transposon DNA lacking flanking recognition elements was used.",
  "data": [
    {"binder": "SEAP-Tn linear transposon with mosaic ends (dsDNA) DNA 1: CTGTCTCTTATACACATCT DNA 2: AGATGTGTATAAGAGACAG", "values": [
      {"measurement": "activity", "value": "1.6 fold colonies vs control plasmid"}
    ]}
  ]
}
